Laboratory results taken from patent US9107936B2, “Antagonists of GRASP55 for use as a medicament” (Institut National de la Sante et de la Recherche Medicale …, priority 2012, dated 2015).
One block for each molecule: values may come before it. Where no end group is shown, it is not given here.

Columns and labels:
[1] = biological target: T1, GST-PDZI′ (Grasp55 residues 1 to 107) (Mus musculus, UniProt Q99JX3); assay: HTRF measurement of interaction of biotinylated C-terminal peptides with GST-PDZI′; assay type: binding, murine; settings: for interaction of biotinylated peptide with PDZI′ GST construct: peptide 1.9*10^−7M; for which Grasp55 construct's interaction with JAM-C is inhibited: NINDS library screening, PDZI′ and PDZI′+II′ recombinant GST proteins
T1 construct: GST fusion proteins encompassing residues 1 to 107; made in house; host or cells: bacteria Rosetta
Description: (§1) To refine and extend the results obtained by yeast two hybrid, an Homogenous Time Resolved Fluorescence (HTRF) assay have been set-up to measure interactions of various peptides with recombinant GST proteins corresponding to different regions of Grasp55.
(§2) Briefly, the technique consisted in incubating 18 h at 4° C. the biotinylated-Cterminal peptides (SEQ ID NO: 26 to 34) at the concentration of 1.9*10^−7M with the GST-fusion protein, the terbium-coupled anti-GST antibody (8*10^−10M each) and the d2-coupled streptavidin (4*10^−8M) (both from Cisbio), in 0.1 mL of Hepes 0.05M, NaCl 0.15M BSA 0.1% pH 7.2. In some experiments, competing peptide or chemicals were added to the incubation mix at the indicated concentration. After incubation, microtiter plates (Costar #3693) were red using PolarScan Omega (BMG Labtech) equipped for HTRF measurements. Upon excitation at 320 nm, a 620 nm fluorescence emission is produced by the donor terbium that in turn excites a 665 nm light emission by a Streptavidin-d2 (acceptor) bound to the Biotinylated interacting Peptide if the latter is interacting with the donor. The […] R ratio is obtained and a Delta F is computed as: [(Rsample−RNSB)/RNSB]*100 where RNSB is the Non Specific Background signal determined in incubates where the GST-fusion protein was omitted.
(§3) Having shown that HTRF measurement of interaction is a reliable technology to identify inhibitors of interaction. A screen of a chemical compound library provided by MRCt has been initiated. The screening consisted in the same HTRF technique used in Example 7 except that compounds from the library were added in the incubation mix at the final concentration of 6.6×10^−5M. […] Since such a result could be either due to a specific inhibition of the JAM-C peptide interaction to the recombinant Grasp55 PDZ domains or to a non-specific inhibition of the FRET signal between donor and acceptor in HTRF technology, the twenty selected compounds have been further tested. Indeed, compounds could potentially interfere with the binding of the anti-GST antibody terbium-labeled to the GST of the fusion protein, the binding of Streptavidin-d2 to the biotinylated peptide or promote strong interference at 320, […] or 665 nm. Thus, the putative hits obtained were screened for non-specific inhibition. To this end, the GST-PDZI′+II′ recombinant protein was biotinylated using Sulfo-NHS Biotin according to manufacturer instructions (Pierce). This allows designing an HTRF assay in which the d2-coupled streptavidin (acceptor) and the terbium-coupled anti-GST antibody are directly bound to recombinant GST-PDZI′+II′ protein and produce DeltaF signal independently of the biotinylated peptide. The twenty selected compounds were thus tested in this assay to eliminate those giving false inhibition of the HTRF signals while inhibitors of Biotinylated peptide interaction with GST-PDZI′+II′ should not interfere in this assay.

[2] = biological target: T2, GST-PDZI′+II′ (Grasp55 residues 1 to 208) (Mus musculus, UniProt Q99JX3); assay: HTRF measurement of interaction of biotinylated C-terminal peptides with GST-PDZI′+II′; assay type: binding, murine; settings: for interaction of biotinylated peptide with PDZI′+II′ GST construct: peptide 1.9*10^−7M
T2 construct: and 1 to 208 corresponding respectively to the PDZI′, PDZII′ and PDZI′+II′ constructs; made in house; host or cells: bacteria Rosetta
Description: as §1, §2, §3

JAM-C ΔPDZbm = biological target: T3, JAM-C ΔPDZbm (Mus musculus, UniProt Q9D8B7); assay: yeast two hybrid interaction of Grasp55 constructs with JAM-C ΔPDZbm; assay type: binding, murine; design: key: Symbols “+++” and “−” indicates the growth of yeast on selective media as shown in the FIGURE 13; Symbols “+++” and “−” indicates the growth of yeast on selective media as shown in the FIGURE 13
T3 construct: amino-acids 263 to 310 of murine JAM-C; expressed in transfected cells; host or cells: AH109 yeast strain
T3 sequence (Q9D8B7 263-307 limits assumed): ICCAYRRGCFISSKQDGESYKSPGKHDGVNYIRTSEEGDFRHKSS
Source text: (§4) The different GRASP55 constructs were cloned into pGBT9 GW vector (Ga14 DNA-binding domain fusion vector, Trp) as well in the pACT2 GW vector (Gal4 DNA-activation domain fusion vector, Leu) using the Gateway technology (Invitrogen). Plasmids were then co-transformed in AH109 yeast strain (/MATa, trp1-901, leu2-3, 112, ura3-52, his3-200, gal4/A, /gal80/A, /LYS2::GAL1//UAS//-GAL1//TATA//-HIS3, GAL2//UAS//-GAL2//TATA//-ADE2, URA3::MEL1//UAS//-MEL1//TATA//-lacZ, MEL1/) in accordance with the previously described transformation protocol (Chien et al. 1991. Proc Natl Acad Sci USA. 88:9578-82). Following co-transformation with the two vectors containing the different constructs (as well as the empty vector to test self activation), yeasts were plated onto Synthetic Complete (SC) medium minus Leucine (−L), minus Tryptophan (−W), minus Histidine (−H) and incubated at 30° C. for 4 to 5 days. All yeast media were prepared as previously described.
(§5) In examples 2, the inventors have previously shown that interaction between Grasp55 and C-terminal part of JAM-C requires the peptidic sequence between residues 1 to 160 of Grasp55 (PDZI+II) but cannot occur with residues 1 to 79 of Grasp55 (PDZI) by yeast two hybrid and ELISA assay (FIGS. 2 and 8). In the present example, the interaction sites between JAMs or metalloproteinases involved in JAM regulation and Grasp55 have been mapped using new constructs. To this end, yeast two-hybrid and GST fusion proteins encompassing residues 1 to 107, 108 to 208, and 1 to 208 corresponding respectively to the PDZI′, PDZII′ and PDZI′+II′ constructs have been generated. The former PDZII construct (residues 80 to 160) have also been used to test interaction with the C-terminal sequences of ADAM 10 (of sequence SEQ ID NO: 41) and ADAM 17 (of sequence SEQ ID NO: 42) known to regulate JAM-A and JAM-C release (Table 1). GST fusion proteins were produced and yeast two-hybrid assay was performed as previously described in example 1.

ADAM10 = biological target: T4, ADAM10 (Mus musculus, UniProt O35598, DEL741-741); assay: yeast two hybrid interaction of Grasp55 constructs with ADAM10 C-terminal sequence; assay type: binding, murine; design: key: Symbols “+++” and “−” indicates the growth of yeast on selective media as shown in the FIGURE 13; Symbols “+++” and “−” indicates the growth of yeast on selective media as shown in the FIGURE 13
T4 construct: expressed in transfected cells; host or cells: AH109 yeast strain
T4 sequence (O35598 with tags, fused parts or gaps DEL741-741): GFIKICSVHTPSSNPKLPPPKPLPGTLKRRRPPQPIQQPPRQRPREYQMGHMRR
Source text: as §4, §5

JAM-C = biological target: T5, JAM-C (Mus musculus, UniProt Q9D8B7); assay: yeast two hybrid interaction of Grasp55 constructs with JAM-C; assay type: binding, murine; design: key: Symbols “+++” and “−” indicates the growth of yeast on selective media as shown in the FIGURE 13; Symbols “+++” and “−” indicates the growth of yeast on selective media as shown in the FIGURE 13
T5 construct: amino-acids 263 to 310 of murine JAM-C; expressed in transfected cells; host or cells: AH109 yeast strain
T5 sequence (Q9D8B7 263-310): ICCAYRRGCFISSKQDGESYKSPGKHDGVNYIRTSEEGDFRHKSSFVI
Source text: as §4, §5

ADAM17 = biological target: T6, ADAM17 (Mus musculus, UniProt Q9Z0F8, A775V/P752S); assay: yeast two hybrid interaction of Grasp55 constructs with ADAM17 C-terminal sequence; assay type: binding, murine; design: key: Symbols “+++” and “−” indicates the growth of yeast on selective media as shown in the FIGURE 13; Symbols “+++” and “−” indicates the growth of yeast on selective media as shown in the FIGURE 13
T6 construct: expressed in transfected cells; host or cells: AH109 yeast strain
T6 sequence (Q9Z0F8 693-827 P752S/A775V): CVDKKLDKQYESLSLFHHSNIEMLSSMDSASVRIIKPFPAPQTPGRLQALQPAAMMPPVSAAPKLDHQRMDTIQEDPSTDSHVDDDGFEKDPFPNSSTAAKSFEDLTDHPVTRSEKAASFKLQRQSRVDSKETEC
Source text: as §4, §5

B16F10 cells = assay: wound healing assay (cell migration); assay type: cell-based, mouse; settings: siRNA, 48 h post-transfection, measured over 6 h; sicontrol 167±13; Mean+/−SEM
Description: Transient transfections were performed on a 50% confluent monolayer of B16F10 cells with either 10 nM of siRNA or 5 μg of shRNA against luciferase used as a control or shRNA against GRASP55 in Lipofectamine RNAimax (Invitrogen). Transfection efficiency was monitored at 24 h by qRT-PCR and Western blots for the expression of GRASP55 transcript or protein. For selection of stable transfectants, cells were grown in DMEM containing 10 μg/ml of puromycine (Sigma Aldrich) starting 48 h after transfection.
For in vitro wound healing assays, 80% confluent monolayers of wild-type B16F10 cells or B16F10 cells transfected with various siRNA or shRNA were grown in both chambers of Ibidi culture inserts with defined cell free gaps. Cells were subjected to serum starvation for 24 h, before wounds were created by removing Ibidi culture inserts that define cell gaps of 400 μm. The wound healing was carried out for 8 h in complete DMEM medium and was recorded at various times after wounding. Analysis of wound closure was performed using Metamorph software and is expressed as mean speed per minute.

[3] = competition with unlabelled JAM-C peptide

- interaction of biotinylated peptide with PDZI′ GST construct [1]: confirmed
- AppAff for GST-PDZI′+II′ compared with GST-PDZI′ [2, 3]: higher AppAff
- interaction of biotinylated peptide with PDZI′+II′ GST construct [2]: confirmed
Molecule: JAM-A: biotinylated C-terminal peptide of JAM-A (SQPSTRSEGEFKQTSSFLV; also: biotinylated)
- apparent affinity (AppAff) compared with JAM-C ([2]; competition with unlabelled JAM-C peptide, GST-PDZI′ and GST-PDZI′+II′): AppAff of JAM-C is equal to AppAff of JAM-A

- interaction with JAM-C ΔPDZbm (yeast growth on selective media) (JAM-C ΔPDZbm): −
- interaction with ADAM10 (yeast growth on selective media) (ADAM10): −
- interaction with JAM-C (yeast growth on selective media) (JAM-C): −
- interaction with ADAM17 (yeast growth on selective media) (ADAM17): −
Molecule: PDZII′: Grasp55 construct, residues 108 to 208

- interaction of biotinylated peptide with PDZI′ GST construct [1]: confirmed
- AppAff for GST-PDZI′+II′ compared with GST-PDZI′ [2, 3]: higher AppAff
- interaction of biotinylated peptide with PDZI′+II′ GST construct [2]: confirmed
Molecule: JAM-C: biotinylated C-terminal peptide of JAM-C (NYIRTSEEGDFRHKSSFVI; also: biotin)

Molecule: N.N.O=C([O-])C1(C(=O)[O-])CCC1.[Pt+2] [Carboplatin, cis-Diammine(1,1-cyclobutanedicarboxylato)platinum(II)]
- which Grasp55 construct's interaction with JAM-C is inhibited [1]: preferentially inhibit the interaction of JAM-C with PDZI′

- interaction of biotinylated peptide with PDZI′+II′ GST construct [2]: no signal over the background
Molecule: ΔPDZbm: control biotynilated JAM-C peptide lacking the three terminal amino-acids (SEQ ID NO: 31) (NYIRTSEEGDFRHKSS; also: biotinylated)

- interaction with JAM-C ΔPDZbm (yeast growth on selective media) (JAM-C ΔPDZbm): −
- interaction with ADAM10 (yeast growth on selective media) (ADAM10): −
- interaction with JAM-C (yeast growth on selective media) (JAM-C): +++
- interaction with ADAM17 (yeast growth on selective media) (ADAM17): −
Molecule: PDZI′: Grasp55 construct, residues 1 to 107

Molecule: O=c1oc2c(O)c(O)cc3c(=O)oc4c(O)c(O)cc1c4c23 [Ellagic acid, 2,3,7,8-Tetrahydroxy-chromeno[5,4,3-cde]chromene-5,10-dione]
- which Grasp55 construct's interaction with JAM-C is inhibited [1]: inhibit interaction with PDZI′ and PDZI′+II′

- interaction with JAM-C ΔPDZbm (yeast growth on selective media) (JAM-C ΔPDZbm): −
- interaction with ADAM10 (yeast growth on selective media) (ADAM10): −
- interaction with JAM-C (yeast growth on selective media) (JAM-C): +++
- interaction with ADAM17 (yeast growth on selective media) (ADAM17): −
Molecule: PDZI′ + II′: Grasp55 construct, residues 1 to 208

Molecule: siGRASP55#1: siRNA targeting Grasp55, SEQ ID NO: 7, 5′AAGUGAUCAUCACACCAAATT 3′, from Ambion (chemistry not given here)
- mean velocity (B16F10 cells): 95 ± 8 nm/min

- which Grasp55 construct's interaction with JAM-C is inhibited [1]: only with PDZI′+II′
Molecule: CCN(CC)C(=S)SSC(=S)N(CC)CC [Disulfiram, 1,1′,1″,1′″-[disulfanediylbis(carbonothioylnitrilo)]tetraethane]

Molecule: siGRASP55#01: siRNA targeting Grasp55, SEQ ID NO: 6, 5′CGUCAUGAAUGAGUCUGAATT 3′, from Ambion (chemistry not given here)
- mean velocity (B16F10 cells): 82 ± 4 nm/min
